# Legend:
# Test in all cases: IEDB peptide-MHC binding, cellular MHC/competitive/fluorescence; ≥ and ≤ were set here for values at or beyond the usual limits of such assays
# [1] = biological target: HLA-A*02:01
# [2] = biological target: HLA-A*68:02
# [3] = biological target: HLA-A*02:02
# [4] = biological target: HLA-A*02:06
# [5] = biological target: HLA-A*02:03
# [6] = source organism: Influenza A virus
# [7] = source organism: Vaccinia virus WR
# [8] = source organism: Mammarenavirus guanaritoense
Sequence,"IC50 [1, 7]","IC50 [2, 7]","IC50 [3, 7]","IC50 [4, 7]","IC50 [5, 7]",further results
PLIRHENRMVL,–,–,–,–,–,"IC50 [1, 6]: 28.8 µM; IC50 [2, 6]: ≥ 70 µM; IC50 [3, 6]: ≥ 70 µM; IC50 [4, 6]: ≥ 70 µM; IC50 [5, 6]: 16.9 µM"
AAFEDLRV,–,–,–,–,–,"IC50 [1, 6]: 31.4 µM; IC50 [2, 6]: ≥ 70 µM; IC50 [3, 6]: 28.8 µM; IC50 [4, 6]: 18.4 µM; IC50 [5, 6]: 7.32 µM"
NMDKVSAQNI,16 µM,37.3 µM,8.02 µM,≥ 70 µM,16.8 µM,–
YVPSAEDNYL,≥ 70 µM,≥ 70 µM,≥ 70 µM,≥ 70 µM,≥ 70 µM,–
TTELNIVDEI,35.9 µM,10.7 µM,38.7 µM,21.4 µM,≥ 70 µM,–
PAHKSQLV,–,–,–,–,–,"IC50 [1, 6]: ≥ 70 µM; IC50 [2, 6]: ≥ 70 µM; IC50 [3, 6]: ≥ 70 µM; IC50 [4, 6]: ≥ 70 µM; IC50 [5, 6]: ≥ 70 µM"
AVPNGTLV,–,–,–,–,–,"IC50 [1, 6]: ≥ 70 µM; IC50 [2, 6]: 42.9 µM; IC50 [3, 6]: 10.8 µM; IC50 [4, 6]: 10.6 µM; IC50 [5, 6]: ≥ 70 µM"
ELTSNCTRT,48.7 µM,≥ 70 µM,≥ 70 µM,46.2 µM,≥ 70 µM,–
PACVYGLA,–,–,–,–,–,"IC50 [1, 6]: 68.7 µM; IC50 [2, 6]: 52.3 µM; IC50 [3, 6]: ≥ 70 µM; IC50 [4, 6]: ≥ 70 µM; IC50 [5, 6]: ≥ 70 µM"
LIQYRQQLEL,≥ 70 µM,≥ 70 µM,32.8 µM,52.9 µM,19.5 µM,–
KLTKDRKML,56.6 µM,≥ 70 µM,24.5 µM,≥ 70 µM,36.4 µM,–
VTGSYNLVDT,≥ 70 µM,≥ 70 µM,≥ 70 µM,≥ 70 µM,≥ 70 µM,–
AARLKRSAT,≥ 70 µM,≥ 70 µM,12.5 µM,63.8 µM,10.5 µM,–
AINKCVDIFT,15.9 µM,39 µM,25.3 µM,38.5 µM,26.4 µM,–
CLEAKTHFST,49.7 µM,≥ 70 µM,12.4 µM,≥ 70 µM,11.1 µM,–
FASADNHPKM,≥ 70 µM,≥ 70 µM,≥ 70 µM,≥ 70 µM,47.4 µM,–
NVRGSGMRILV,–,–,–,–,–,"IC50 [1, 6]: 20.8 µM; IC50 [2, 6]: 11.2 µM; IC50 [3, 6]: ≥ 70 µM; IC50 [4, 6]: 54.7 µM; IC50 [5, 6]: 46.1 µM"
PLIISTDQDT,52.5 µM,≥ 70 µM,45 µM,47.4 µM,35.6 µM,–
ELTNKKYRCM,≥ 70 µM,13.8 µM,≥ 70 µM,≥ 70 µM,≥ 70 µM,–
AIKSNNHLT,27.2 µM,46.1 µM,50.7 µM,≥ 70 µM,28.6 µM,–
VASDVCKKNL,≥ 70 µM,39.5 µM,50.9 µM,≥ 70 µM,≥ 70 µM,–
PTLFGRGVI,≥ 70 µM,≥ 70 µM,30.3 µM,64.9 µM,6.73 µM,–
LIISTDQDT,30.1 µM,≥ 70 µM,≥ 70 µM,≥ 70 µM,≥ 70 µM,–
PTRTWKVLSI,≥ 70 µM,42 µM,41.9 µM,≥ 70 µM,15.1 µM,–
CVRLNNPVIL,13.4 µM,≥ 70 µM,8.56 µM,45.1 µM,5.4 µM,–
ATVSADPL,–,–,–,–,–,"IC50 [1, 6]: ≥ 70 µM; IC50 [2, 6]: 42.3 µM; IC50 [3, 6]: 52 µM; IC50 [4, 6]: 21.5 µM; IC50 [5, 6]: ≥ 70 µM"
MQLKIDKLT,26.6 µM,≥ 70 µM,7.67 µM,59.7 µM,60.1 µM,–

Sequence,"IC50 [1, 7]","IC50 [2, 7]","IC50 [3, 7]","IC50 [4, 7]","IC50 [5, 7]",further results
VTKSSSWKDV,≥ 70 µM,40.4 µM,≥ 70 µM,≥ 70 µM,41.9 µM,–
TTENAAYQVL,8.11 µM,18.2 µM,29.7 µM,≥ 70 µM,≥ 70 µM,–
ATKRIRMA,–,–,–,–,–,"IC50 [1, 6]: 42.9 µM; IC50 [2, 6]: 58.6 µM; IC50 [3, 6]: 59.4 µM; IC50 [4, 6]: ≥ 70 µM; IC50 [5, 6]: 11.9 µM"
KAMHDKKIDI,50.6 µM,≥ 70 µM,≥ 70 µM,26.4 µM,46.2 µM,–
DVNEEYTEAA,42.4 µM,16 µM,46.3 µM,59.7 µM,28.8 µM,–
EAKTHFSTT,27.7 µM,13.2 µM,36.6 µM,55.2 µM,25.1 µM,–
GANGSTAEQL,67.6 µM,13.3 µM,7.28 µM,55.2 µM,45.3 µM,–
AIDRQVSVKL,14 µM,52.3 µM,7.9 µM,31.9 µM,13.1 µM,–
IILFQNNDI,13.5 µM,23.8 µM,11.3 µM,12.1 µM,52.3 µM,–
NTTIEKEI,–,–,–,–,–,"IC50 [1, 6]: 50.7 µM; IC50 [2, 6]: ≥ 70 µM; IC50 [3, 6]: ≥ 70 µM; IC50 [4, 6]: ≥ 70 µM; IC50 [5, 6]: ≥ 70 µM"
DIMLPESDL,12.9 µM,13.4 µM,18.5 µM,31.6 µM,35.8 µM,–
RAEIIRMMEGA,–,–,–,–,–,"IC50 [1, 6]: ≥ 70 µM; IC50 [2, 6]: 54.7 µM; IC50 [3, 6]: 11.8 µM; IC50 [4, 6]: ≥ 70 µM; IC50 [5, 6]: 10 µM"
LLTHGADPNA,11.2 µM,≥ 70 µM,9.61 µM,15.7 µM,7.51 µM,–
LTDVEKRIL,27 µM,≥ 70 µM,27.4 µM,≥ 70 µM,28.5 µM,–
PLHIVCSKTV,21.3 µM,9.35 µM,34.5 µM,27 µM,5.27 µM,–
GIDTSNNIA,17.3 µM,≥ 70 µM,49.7 µM,25.2 µM,≥ 70 µM,–
PTNDIPSLFI,18.4 µM,24.8 µM,11 µM,14.8 µM,61.8 µM,–
ALEPRKEIDV,27.2 µM,≥ 70 µM,8.37 µM,63.8 µM,11.2 µM,–
YVEHDPRLVA,57.5 µM,31.1 µM,18.6 µM,11.9 µM,16.2 µM,–
KTEHCDDFMT,7.51 µM,≥ 70 µM,7.82 µM,11.6 µM,37.7 µM,–
IAEYIAGLKI,7.83 µM,5.85 µM,28.6 µM,10.2 µM,23 µM,–
PACVYGPA,–,–,–,–,–,"IC50 [1, 6]: ≥ 70 µM; IC50 [2, 6]: ≥ 70 µM; IC50 [3, 6]: 14.2 µM; IC50 [4, 6]: ≥ 70 µM; IC50 [5, 6]: ≥ 70 µM"
GLQSSDDFA,–,–,–,–,–,"IC50 [1, 6]: 7.88 µM; IC50 [2, 6]: ≥ 70 µM; IC50 [3, 6]: 11.4 µM; IC50 [4, 6]: ≥ 70 µM; IC50 [5, 6]: 18.5 µM"
IIRVTTELNI,7.07 µM,16.4 µM,9.96 µM,13.7 µM,8.76 µM,–
KNAGYLVGR,–,–,–,–,–,"IC50 [1, 8]: 23 µM; IC50 [2, 8]: ≥ 70 µM; IC50 [3, 8]: 45.7 µM; IC50 [4, 8]: ≥ 70 µM; IC50 [5, 8]: ≥ 70 µM"
DIDLLFNEKL,5.79 µM,15.8 µM,11.2 µM,25.7 µM,26.7 µM,–

# Reference: the Immune Epitope Database (IEDB)
